Reference: publication PMC9943875, “Agonist-controlled competition of RAR and VDR nuclear receptors for heterodimerization with RXR is manifested in their DNA binding” (The Journal of Biological Chemistry, 2023)

T1: mCherry-RXR (retinoid X receptor alpha, N-terminally tagged with mCherry) (UniProt P19793 1-462)
T1 sequence (looked up): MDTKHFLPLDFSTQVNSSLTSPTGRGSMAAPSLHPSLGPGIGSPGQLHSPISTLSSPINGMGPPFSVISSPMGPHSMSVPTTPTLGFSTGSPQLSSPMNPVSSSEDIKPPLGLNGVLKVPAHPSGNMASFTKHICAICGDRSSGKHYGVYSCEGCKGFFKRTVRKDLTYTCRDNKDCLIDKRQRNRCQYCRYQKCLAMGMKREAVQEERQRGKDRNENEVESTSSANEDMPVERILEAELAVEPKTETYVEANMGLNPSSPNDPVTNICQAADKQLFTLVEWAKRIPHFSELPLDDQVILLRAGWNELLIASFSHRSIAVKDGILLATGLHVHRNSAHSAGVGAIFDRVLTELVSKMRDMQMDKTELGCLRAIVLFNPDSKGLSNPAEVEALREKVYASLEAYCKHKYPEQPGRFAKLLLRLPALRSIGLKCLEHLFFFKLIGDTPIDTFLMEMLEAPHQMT


How the values were obtained:
[1] = target: mCherry-RXR (retinoid X receptor alpha, N-terminally tagged with mCherry) (UniProt P19793)
[2] = target: TagBFP-RXR (retinoid X receptor alpha tagged with TagBFP) (UniProt P19793)
[3] = target: T1, mCherry-RXR (retinoid X receptor alpha, …); assay: cell-based or functional assay

slow (DNA-bound) fraction ρ2 of EGFP-RAR by FCS in live HEK293 cells cotransfected with mCherry-RXR, no ligand (∼22% for EGFP-RAR alone) [1]	slow fraction ρ2 of EGFP-RAR by FCS in triple-transfected cells (EGFP-RAR, mCherry-VDR, TagBFP-RXR), no ligand, against ρ2 ∼ 0.38 in cells with RAR and RXR only [2]	slow (DNA-bound) fraction ρ2 of EGFP-VDR by FCS in live HEK293 cells, mCherry-RXR coexpressed and 100 nM calcitriol added together [3] [fold]	Binder
0.38			EGFP-RAR (retinoic acid receptor alpha, N-terminally tagged with EGFP) (receptor) MASNSSSCPTPGGGHLNGYPVPPYAFFFPPMLGGLSPPGALTTLQHQLPVSGYSTPSPATIETQSSSSEEIVPSPPSPPPLPRIYKPCFVCQDKSSGYHYGVSACEGCKGFFRRSIQKNMVYTCHRDKNCIINKVTRNRCQYCRLQKCFEVGMSKESVRNDRNKKKKEVPKPECSESYTLTPEVGELIEKVRKAHQETFPALCQLGKYTTNNSSEQRVSLDIDLWDKFSELSTKCIIKTVEFAKQLPGFTTLTIADQITLLKAACLDILILRICTRYTPEQDTMTFSDGLTLNRTQMHNAGFGPLTDLVFAFANQLLPLEMDDAETGLLSAICLICGDRQDLEQPDRVDMLQEPLLEALKVYVRKRRPSRPHMFPKMLMKITDLRSISAKGAERVITLKMEIPGSMPPLIQEMLENSEGLDTLSGQPGGGGRDGGGLAPPPGSCSPSLSPSSNRSSPATHSP
	0.32	2	EGFP-VDR (vitamin D receptor, N-terminally tagged with EGFP) (receptor, UniProt P11473 1-427, looked up) MEAMAASTSLPDPGDFDRNVPRICGVCGDRATGFHFNAMTCEGCKGFFRRSMKRKALFTCPFNGDCRITKDNRRHCQACRLKRCVDIGMMKEFILTDEEVQRKREMILKRKEEEALKDSLRPKLSEEQQRIIAILLDAHHKTYDPTYSDFCQFRPPVRVNDGGGSHPSRPNSRHTPSFSGDSSSSCSDHCITSSDMMDSSSFSNLDLSEEDSDDPSVTLELSQLSMLPHLADLVSYSIQKVIGFAKMIPGFRDLTSEDQIVLLKSSAIEVIMLRSNESFTMDDMSWTCGNQDYKYRVSDVTKAGHSLELIEPLIKFQVGLKKLNLHEEEHVLLMAICIVSPDRPGVQDAALIEAIQDRLSNTLQTYIRCRHPPPGSHLLYAKMIQKLADLRSLNEEHSKQYRCLSFQPECSMKLTPLVLEVFGNEIS
